The text below walks through data of patent US20260028424A1 (GRANULAR THERAPEUTICS, published 2026).

First the molecules themselves.
T1: human CD203c expressed on the surface of KU812 cells (human, UniProt O14638 1-875)
T1 construct: whole, on cells; also called cell-surface CD203c; cell surface CD203c on KU812 cells
T1 sequence (looked up): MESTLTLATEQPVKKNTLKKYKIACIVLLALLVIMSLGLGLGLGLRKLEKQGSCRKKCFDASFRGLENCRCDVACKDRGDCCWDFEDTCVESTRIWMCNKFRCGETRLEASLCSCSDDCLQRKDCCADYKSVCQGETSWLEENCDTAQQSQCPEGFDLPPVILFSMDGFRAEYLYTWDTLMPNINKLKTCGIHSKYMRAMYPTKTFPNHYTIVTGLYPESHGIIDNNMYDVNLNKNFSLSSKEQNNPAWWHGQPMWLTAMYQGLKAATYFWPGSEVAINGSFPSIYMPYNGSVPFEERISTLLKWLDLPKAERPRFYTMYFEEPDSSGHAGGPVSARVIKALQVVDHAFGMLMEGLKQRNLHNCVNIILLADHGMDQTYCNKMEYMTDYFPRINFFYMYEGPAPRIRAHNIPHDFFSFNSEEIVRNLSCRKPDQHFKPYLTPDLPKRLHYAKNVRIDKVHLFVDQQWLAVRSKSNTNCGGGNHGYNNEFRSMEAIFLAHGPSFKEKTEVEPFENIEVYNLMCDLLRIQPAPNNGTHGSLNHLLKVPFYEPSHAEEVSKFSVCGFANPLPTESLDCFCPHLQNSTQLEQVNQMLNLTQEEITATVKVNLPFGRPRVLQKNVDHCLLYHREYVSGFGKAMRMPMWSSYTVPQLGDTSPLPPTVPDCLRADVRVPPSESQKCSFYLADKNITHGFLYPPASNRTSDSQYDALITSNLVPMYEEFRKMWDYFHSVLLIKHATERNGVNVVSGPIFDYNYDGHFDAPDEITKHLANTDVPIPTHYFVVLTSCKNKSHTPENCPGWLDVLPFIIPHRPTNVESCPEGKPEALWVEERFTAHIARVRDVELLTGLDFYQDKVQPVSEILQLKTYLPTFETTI

T2: rhesus monkey CD203c His-tagged recombinant protein (rhesus monkey, UniProt F6TH66 31-874)
T2 construct: also called rhesus CD203c; not shown: His tag
T2 sequence: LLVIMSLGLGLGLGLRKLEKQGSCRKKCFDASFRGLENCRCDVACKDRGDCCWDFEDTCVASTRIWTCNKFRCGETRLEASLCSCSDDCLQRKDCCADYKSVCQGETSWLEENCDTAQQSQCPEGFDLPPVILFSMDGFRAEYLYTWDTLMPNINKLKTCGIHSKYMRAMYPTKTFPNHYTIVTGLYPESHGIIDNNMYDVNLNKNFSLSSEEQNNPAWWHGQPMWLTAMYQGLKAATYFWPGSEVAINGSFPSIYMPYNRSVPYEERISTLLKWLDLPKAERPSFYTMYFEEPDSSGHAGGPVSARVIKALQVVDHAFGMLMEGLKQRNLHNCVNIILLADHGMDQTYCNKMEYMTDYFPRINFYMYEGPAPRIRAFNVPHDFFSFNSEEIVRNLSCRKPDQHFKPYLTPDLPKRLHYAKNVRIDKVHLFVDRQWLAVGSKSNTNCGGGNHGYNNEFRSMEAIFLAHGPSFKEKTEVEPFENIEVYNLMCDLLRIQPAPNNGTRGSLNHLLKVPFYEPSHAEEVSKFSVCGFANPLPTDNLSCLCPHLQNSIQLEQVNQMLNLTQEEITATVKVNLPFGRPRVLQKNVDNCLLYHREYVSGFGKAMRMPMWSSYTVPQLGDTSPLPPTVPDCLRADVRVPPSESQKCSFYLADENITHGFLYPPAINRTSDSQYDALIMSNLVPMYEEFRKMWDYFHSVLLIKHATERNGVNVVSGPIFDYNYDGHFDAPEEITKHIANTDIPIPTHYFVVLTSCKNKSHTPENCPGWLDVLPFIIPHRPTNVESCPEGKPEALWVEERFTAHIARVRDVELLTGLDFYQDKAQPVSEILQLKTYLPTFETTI

T3: human CD203c His-tagged recombinant protein (human, UniProt O14638 49-875, limits assumed)
T3 construct: also called ENPP3; not shown: His tag
T3 sequence (looked up): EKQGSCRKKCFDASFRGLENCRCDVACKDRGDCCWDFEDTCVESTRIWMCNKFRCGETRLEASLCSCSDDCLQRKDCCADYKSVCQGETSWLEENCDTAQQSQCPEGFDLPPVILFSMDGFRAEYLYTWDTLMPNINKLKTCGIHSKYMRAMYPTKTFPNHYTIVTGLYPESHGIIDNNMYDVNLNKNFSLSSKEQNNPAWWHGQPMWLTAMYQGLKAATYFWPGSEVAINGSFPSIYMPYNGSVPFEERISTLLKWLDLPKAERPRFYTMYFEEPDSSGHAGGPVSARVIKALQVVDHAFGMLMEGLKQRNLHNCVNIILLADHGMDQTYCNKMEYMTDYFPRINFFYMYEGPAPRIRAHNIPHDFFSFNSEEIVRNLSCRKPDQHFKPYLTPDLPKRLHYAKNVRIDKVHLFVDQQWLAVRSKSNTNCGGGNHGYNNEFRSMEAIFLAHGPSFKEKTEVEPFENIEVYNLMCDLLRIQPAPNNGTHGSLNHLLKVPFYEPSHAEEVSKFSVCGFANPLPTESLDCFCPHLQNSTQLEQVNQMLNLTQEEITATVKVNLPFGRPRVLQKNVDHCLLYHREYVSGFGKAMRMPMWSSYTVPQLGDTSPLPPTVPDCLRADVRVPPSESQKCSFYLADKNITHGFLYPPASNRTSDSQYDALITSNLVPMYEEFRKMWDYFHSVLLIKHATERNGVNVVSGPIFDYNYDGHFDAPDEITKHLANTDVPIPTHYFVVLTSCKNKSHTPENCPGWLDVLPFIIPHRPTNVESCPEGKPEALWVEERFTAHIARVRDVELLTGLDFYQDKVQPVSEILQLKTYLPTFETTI

B1: F6/MH1 common light chain bispecific (anti-CD203c F6 x anti-c-Kit MH1) (bispecific antibody, V domains shown)
VH 1: QVQLVQSGAEVKKPGASVKVSCKASGYTFTDYYMNWVRQAPGQGLEWMGRIYPGSGNTYYAQKFQGRVTMTRDTSTSTVYMELSSLRSEDTAVYYCARGVYYYDYWGQGTLVTVSS
VH 2: EVQLVQSGAEVKKPGESLKISCKGSGYRFASNWIGWVRQMPGKGLEWMGEIYPGDSNTRYSPSFQGQVTISADKSISTAYLQWSSLKASDTAMYYCARKDYYYYAMDVWGQGTTVTVSS
VL: DIQMTQSPSSLSASVGDRVTITCRASQGIRTNLAWFQQKPGKAPKSLIYAASSLQSGVPSRFSGSGSGTDFTLTISSLQPEDFATYYCQQYNSYPRTFGGGTKVEIK
notes: Knob-in-hole IgG1null bispecific with human Ckappa; also called F6/MH1 bispecific molecule
B2: bispecific pair with alternative common light chain VL1: MH1 VH / 2.7_1 VH / VL1 (bispecific antibody, V domains shown)
VH 1: B1 VH 1
VH 2: EVQLVESGPGLVKPSETLSLTCTVSGGSISSSSYYWGWIRQPPGKGLEWIGSMYYSGSTYHNPSLKSRVIISVDTSKNQFSLKLSSVTAADTAVYYCARHYITVAGIFDYWGQGTLVTVSS
VL: QSVLTQPPSASGTPGQRATISCRASQGIRTNLAWYQQVPGTAPKLLIYAASSLQSGVPSRFSGSKSGTSASLAISGLQSEDEADYYCQQYNSYPRTFGGGTKLTVL
notes: Format as tested (bispecific or separate IgGs) is not described beyond 'bispecific pairs'
B3: bispecific pair with alternative common light chain VL2: MH1 VH / 2.7_1.2 VH / VL2 (bispecific antibody, V domains shown)
VH 1: B1 VH 1
VH 2: B2 VH 2
VL: B2 VL with A49S, A50N, S51N, S52Q, L53R, Q54P, S59D
B4: bispecific pair with alternative common light chain VL4: MH1 VH / 2.14_1.2 VH / VL4 (bispecific antibody, V domains shown)
VH 1: B1 VH 1
VH 2: QVQLQESGPGLVKPSQTLSLTCTVSGGSISSGGYYWSWIRQHPGKGLEWIGIIYYSGSTYYNPSLKSRVTISVDTSKNQFSLKLNSVTAADTAVFYCARVAIVTTIPGGMDVWGQGTTVTVSS
VL: EIVLTQSPDFQSVTPKEKVTITCRASQGIRTNLAWYQQKPDQSPKLLIKYASQSFSGVPSRFSGSGSGTDFTLTINSLEAEDAATYYCQQYNSYPRTFGQGTKVEIK
B5: A5 (antibody, V domains shown)
VH: B1 VH 2 with A30S, N32Y, W33R, N57K
VL: B1 VL
notes: also called variant A5; A5 VH domain
B6: 17 (antibody, V domains shown)
VH: B1 VH 2 with A30T, N32Y, E50I, N57D, Y104N, D107P
VL: B1 VL
notes: also called variant 17; 17 VH domain
B7: 10 (antibody, V domains shown)
VH: B1 VH 2 with A30T, N32Y, E50I, N57D, Y104G
VL: B1 VL
notes: also called variant 10; 10 VH domain
B8: C4 (antibody, V domains shown)
VH: B1 VH 2 with A30G, N32Y, E50D, D55N, N57D
VL: B1 VL
notes: also called variant C4; C4 VH domain
B9: 15 (antibody, V domains shown)
VH: B1 VH 2 with A30T, N32Y, E50I, N57D, Y104G, A105T
VL: B1 VL
notes: also called variant 15; 15 VH domain
B10: 11 (antibody, V domains shown)
VH: B1 VH 2 with A30T, N32Y, E50I, N57D, Y104G, M106F
VL: B1 VL
notes: also called variant 11; 11 VH domain
B11: 13 (antibody, V domains shown)
VH: B1 VH 2 with A30T, N32Y, E50I, N57D, Y104G, A105S
VL: B1 VL
notes: also called variant 13; 13 VH domain
B12: 18 (antibody, V domains shown)
VH: B1 VH 2 with A30T, N32Y, E50I, N57D, Y104D, V108Y
VL: B1 VL
notes: also called variant 18; 18 VH domain
B13: 14 (antibody, V domains shown)
VH: B1 VH 2 with A30T, N32Y, E50I, N57D, Y104G, M106L
VL: B1 VL
notes: also called variant 14; 14 VH domain
B14: 26 (antibody, V domains shown)
VH: B1 VH 2 with N32H, N57D, Y60I
VL: B1 VL
notes: also called variant 26; 26 VH domain
B15: 12 (antibody, V domains shown)
VH: B1 VH 2 with A30T, N32Y, E50I, N57D, Y104G, A105I
VL: B1 VL
notes: also called variant 12; 12 VH domain
B16: 23 (antibody, V domains shown)
VH: B1 VH 2 with A30G, N32Y, N57K
VL: B1 VL
notes: also called variant 23; 23 VH domain

Changes are numbered by the printed parent chain.

The target of the first assay is c-Kit (antigen of the binding assay of FIG. 9A) (Homo sapiens (Human), UniProt P10721 26-524). The experiment in a line: plate binding assay on Human c-KIT, A450-A630 (ratio corrected).
Chain of c-Kit (antigen of the binding assay of FIG. 9A) (P10721 26-524 limits assumed): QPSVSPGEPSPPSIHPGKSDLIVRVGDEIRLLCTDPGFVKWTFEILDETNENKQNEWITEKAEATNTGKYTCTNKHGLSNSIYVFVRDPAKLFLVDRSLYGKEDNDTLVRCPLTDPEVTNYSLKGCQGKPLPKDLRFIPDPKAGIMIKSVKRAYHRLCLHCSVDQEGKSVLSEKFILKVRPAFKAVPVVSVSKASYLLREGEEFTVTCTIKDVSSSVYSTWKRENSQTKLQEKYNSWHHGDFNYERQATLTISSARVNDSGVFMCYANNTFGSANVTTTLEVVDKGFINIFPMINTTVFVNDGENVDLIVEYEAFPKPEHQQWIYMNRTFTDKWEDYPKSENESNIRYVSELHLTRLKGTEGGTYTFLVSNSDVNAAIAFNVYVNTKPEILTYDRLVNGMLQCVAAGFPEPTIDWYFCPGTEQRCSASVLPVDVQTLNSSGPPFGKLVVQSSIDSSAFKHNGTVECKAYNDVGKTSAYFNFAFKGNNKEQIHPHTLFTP
For the molecule B1, the concentration for a half-maximal effect (EC50 (read off the curve)) is roughly 0.5 µg/mL.

For the molecule B2, the “EC50 (read off the curve)” value was roughly 0.06 µg/mL. On the same count and under the same terms, then B3, with roughly 0.06 µg/mL; and B4, with roughly 0.06 µg/mL.

The target of another assay is T1, human CD203c expressed on the surface …. Put plainly: flow cytometry on KU812 cells, MFI (530/30 - 488nm) of live cells.
Turning to B5, the binding result is “binds”. Still for that read-out and setting: then B6, with “binds”; and B7, with “binds”. The same measure, in the same setting: then B8, with “binds”; and B9, with “binds”. Turning to B10, the binding result was “binds”.

For another assay, the target named is T2, rhesus monkey CD203c His-tagged …. The experiment in a line: direct binding ELISA on rhesus CD203c, absorbance (blank corrected).
In the case of B11, the binding result was “binds”. Still for that read-out and setting: with B6 the entry was “binds”; with B12, “binds”; with B7, “binds”. The same measure, in the same setting: with B13 the entry was “binds”; with B14, “binds”. Take B9: the binding result is given as “binds”. For the molecule B10, the binding result is on record as “binds”.

B15: the binding result was “binds”.

The next assay deals with T3, human CD203c His-tagged recombinant …. Put plainly: direct binding ELISA on human CD203c, absorbance (blank corrected).
Turning to B11, the binding result was “binds”. The same measure, in the same setting: with B5 the entry was “binds”; with B6, “binds”.

B12: the binding result was “binds”. Same read-out and setting: with B7 the entry was “binds”; with B13, “binds”. Same read-out and setting: then B8, with “binds”; and B14, with “binds”; and B9, with “binds”. B10: the binding result is recorded as “binds”.

Regarding B16, the binding result is given as “binds”.

As to B15, the “EC50 (read off the curve)” value was roughly 0.04 µg/mL.
